Data on 1 molecule can be found in PMC8979313.

This data set addresses T1, Pr(brC)2 (UniProt P03069 226-249+=GC, internal_change).
T1 chain: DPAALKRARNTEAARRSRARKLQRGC
In words: EMSA. In general terms: In EMSA bound probe runs differently from free probe, usually more slowly.

B1: Random (dsDNA)
DNA 1: AGCGCACGTCCTGCACGTC
DNA 2: GACGTGCAGGACGTGCGCT
Take B1: the binding result is on record as “no binding”.
